Test results: patent publication US20120052569

Tests used:
[1] = target: His-eTEV-Fn fusion protein (wild type), P02751
[2] = target: His-eTEV-Fn fusion protein, Ala mutant D10, P02751
[3] = target: His-eTEV-Fn fusion protein, Ala mutant E2, P02751
[4] = target: His-eTEV-Fn fusion protein, Ala mutant F6, P02751
[5] = target: His-eTEV-Fn fusion protein, Ala mutant G11, P02751
[6] = target: His-eTEV-Fn fusion protein, Ala mutant G8, P02751
[7] = target: His-eTEV-Fn fusion protein, Ala mutant K9, P02751
His-eTEV-Fn fusion protein, Ala mutant K9, P02751, sequence (P02751 whole entry, looked up, change not shown, the tested form may be a part): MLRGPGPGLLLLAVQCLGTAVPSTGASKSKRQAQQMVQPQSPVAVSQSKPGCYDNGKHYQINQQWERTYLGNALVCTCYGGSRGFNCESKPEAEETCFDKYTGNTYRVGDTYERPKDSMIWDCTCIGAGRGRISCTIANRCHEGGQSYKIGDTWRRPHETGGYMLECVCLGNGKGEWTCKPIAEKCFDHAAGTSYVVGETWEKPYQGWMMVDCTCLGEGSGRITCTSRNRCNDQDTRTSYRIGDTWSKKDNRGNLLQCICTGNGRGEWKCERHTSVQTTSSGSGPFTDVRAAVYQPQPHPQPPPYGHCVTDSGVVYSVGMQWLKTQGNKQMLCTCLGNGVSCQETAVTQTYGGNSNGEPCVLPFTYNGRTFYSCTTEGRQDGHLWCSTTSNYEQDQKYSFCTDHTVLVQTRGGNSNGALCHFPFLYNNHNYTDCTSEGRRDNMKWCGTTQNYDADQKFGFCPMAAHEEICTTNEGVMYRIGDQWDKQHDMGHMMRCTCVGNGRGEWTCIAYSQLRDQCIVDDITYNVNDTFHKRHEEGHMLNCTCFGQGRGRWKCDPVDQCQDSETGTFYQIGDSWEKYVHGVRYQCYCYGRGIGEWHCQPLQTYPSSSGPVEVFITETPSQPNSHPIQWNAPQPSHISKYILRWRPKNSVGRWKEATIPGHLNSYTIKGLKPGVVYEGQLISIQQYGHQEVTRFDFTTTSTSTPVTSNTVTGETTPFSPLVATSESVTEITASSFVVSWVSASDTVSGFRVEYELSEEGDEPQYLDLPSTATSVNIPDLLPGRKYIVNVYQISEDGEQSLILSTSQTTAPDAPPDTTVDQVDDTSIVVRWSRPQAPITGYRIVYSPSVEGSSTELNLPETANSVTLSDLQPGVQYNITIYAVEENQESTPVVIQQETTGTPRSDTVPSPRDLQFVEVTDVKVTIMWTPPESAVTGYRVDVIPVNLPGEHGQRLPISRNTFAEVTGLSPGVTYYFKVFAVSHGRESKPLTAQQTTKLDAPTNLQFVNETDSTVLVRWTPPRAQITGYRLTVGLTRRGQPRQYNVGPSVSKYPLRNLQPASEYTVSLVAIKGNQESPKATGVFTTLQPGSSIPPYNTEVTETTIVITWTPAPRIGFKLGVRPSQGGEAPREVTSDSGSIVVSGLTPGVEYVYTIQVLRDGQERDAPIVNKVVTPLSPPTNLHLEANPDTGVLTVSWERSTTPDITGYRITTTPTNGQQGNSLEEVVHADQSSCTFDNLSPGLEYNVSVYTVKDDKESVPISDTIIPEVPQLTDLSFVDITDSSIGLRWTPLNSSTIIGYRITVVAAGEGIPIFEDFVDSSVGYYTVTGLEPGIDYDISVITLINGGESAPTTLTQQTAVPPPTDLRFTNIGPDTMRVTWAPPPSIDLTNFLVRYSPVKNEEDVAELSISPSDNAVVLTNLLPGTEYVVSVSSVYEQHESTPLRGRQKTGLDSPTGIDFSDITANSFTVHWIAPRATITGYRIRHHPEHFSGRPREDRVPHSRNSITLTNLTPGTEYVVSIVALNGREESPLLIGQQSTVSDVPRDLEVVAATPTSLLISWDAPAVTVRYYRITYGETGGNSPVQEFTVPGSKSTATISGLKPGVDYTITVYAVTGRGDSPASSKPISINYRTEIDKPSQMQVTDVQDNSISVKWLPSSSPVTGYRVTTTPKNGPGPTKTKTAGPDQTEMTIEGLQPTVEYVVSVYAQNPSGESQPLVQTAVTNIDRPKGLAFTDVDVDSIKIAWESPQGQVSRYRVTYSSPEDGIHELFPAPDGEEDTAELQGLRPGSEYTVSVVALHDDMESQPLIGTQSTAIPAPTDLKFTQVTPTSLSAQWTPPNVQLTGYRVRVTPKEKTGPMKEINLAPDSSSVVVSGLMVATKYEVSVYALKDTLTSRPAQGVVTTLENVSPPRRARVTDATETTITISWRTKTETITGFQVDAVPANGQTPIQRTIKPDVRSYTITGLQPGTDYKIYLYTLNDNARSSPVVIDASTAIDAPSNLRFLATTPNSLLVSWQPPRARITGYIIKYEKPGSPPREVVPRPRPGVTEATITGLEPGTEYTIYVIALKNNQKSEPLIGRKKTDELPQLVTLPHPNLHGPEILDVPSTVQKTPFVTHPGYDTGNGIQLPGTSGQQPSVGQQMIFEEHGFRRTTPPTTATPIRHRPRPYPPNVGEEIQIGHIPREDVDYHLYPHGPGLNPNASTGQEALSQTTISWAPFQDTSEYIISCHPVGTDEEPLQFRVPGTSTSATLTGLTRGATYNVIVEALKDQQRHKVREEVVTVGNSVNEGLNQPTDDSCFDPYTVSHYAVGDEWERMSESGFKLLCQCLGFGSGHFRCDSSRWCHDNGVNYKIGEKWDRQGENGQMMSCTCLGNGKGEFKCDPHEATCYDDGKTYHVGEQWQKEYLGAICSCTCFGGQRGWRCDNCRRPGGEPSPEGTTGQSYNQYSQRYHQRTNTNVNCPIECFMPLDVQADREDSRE

[8] = target: His-eTEV-Fn fusion protein, Ala mutant L4, P02751
His-eTEV-Fn fusion protein, Ala mutant L4, P02751, sequence (P02751 whole entry, looked up, change not shown, the tested form may be a part): as above

[9] = target: His-eTEV-Fn fusion protein, Ala mutant M0, P02751
His-eTEV-Fn fusion protein, Ala mutant M0, P02751, sequence (P02751 whole entry, looked up, change not shown, the tested form may be a part): as above

[10] = target: His-eTEV-Fn fusion protein, Ala mutant N3, P02751
His-eTEV-Fn fusion protein, Ala mutant N3, P02751, sequence (P02751 whole entry, looked up, change not shown, the tested form may be a part): as above

[11] = target: His-eTEV-Fn fusion protein, Ala mutant Q7, P02751
His-eTEV-Fn fusion protein, Ala mutant Q7, P02751, sequence (P02751 whole entry, looked up, change not shown, the tested form may be a part): as above

[12] = target: His-eTEV-Fn fusion protein, Ala mutant R1, P02751
His-eTEV-Fn fusion protein, Ala mutant R1, P02751, sequence (P02751 whole entry, looked up, change not shown, the tested form may be a part): as above

[13] = target: His-eTEV-Fn fusion protein, Ala mutant Y5, P02751
His-eTEV-Fn fusion protein, Ala mutant Y5, P02751, sequence (P02751 whole entry, looked up, change not shown, the tested form may be a part): as above

[14] = target: W tag fused Fn, P02751
[15] = target: T1, W tag fused GFPUV
T1 chain: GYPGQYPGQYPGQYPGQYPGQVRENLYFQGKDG

His-eTEV-Fn fusion protein (wild type), P02751, sequence (P02751 other isoform, or with tags, fused parts or gaps): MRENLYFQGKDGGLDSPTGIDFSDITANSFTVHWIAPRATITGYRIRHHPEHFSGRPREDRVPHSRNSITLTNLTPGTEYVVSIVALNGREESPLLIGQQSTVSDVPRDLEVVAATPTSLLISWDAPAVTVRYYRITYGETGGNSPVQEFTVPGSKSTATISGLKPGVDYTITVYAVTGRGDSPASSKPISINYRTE
His-eTEV-Fn fusion protein, Ala mutant E2, P02751, sequence (P02751 whole entry, looked up, change not shown, the tested form may be a part): as the sequence (P02751 whole entry, looked up, change not shown, the tested form may be a part) above
His-eTEV-Fn fusion protein, Ala mutant G8, P02751, sequence (P02751 whole entry, looked up, change not shown, the tested form may be a part): as above
His-eTEV-Fn fusion protein, Ala mutant D10, P02751, sequence (P02751 whole entry, looked up, change not shown, the tested form may be a part): as above
His-eTEV-Fn fusion protein, Ala mutant F6, P02751, sequence (P02751 whole entry, looked up, change not shown, the tested form may be a part): as above
His-eTEV-Fn fusion protein, Ala mutant G11, P02751, sequence (P02751 whole entry, looked up, change not shown, the tested form may be a part): as above

B1: Tobacco etch virus (TEV) protease (protein)
chain: GESLFKGPRDYNPISSTICHLTNESDGHTTSLYGIGFGPFIITNKHLFRRNNGTLLVQSLHGVFKVKNTTTLQQHLIDGRDMIIIRMPKDFPPFPQKLKFREPQREERICLVTTNFQTKSMSSMVSDTSCTFPSSDGIFWKHWIQTKDGQCGSPLVSTRDGFIVGIHSASNFTNTNNYFTSVPKNFMELLTNQEAQQWVSGWRLNADSVLWGGHKVFMSKPEEPFQPVKEATQLMNELVYSQ
For B1, the “cleavage by TEV protease (SDS electrophoresis, 24 kDa to 20 kDa shift)” value [1] was “The eTEV peptide is recognized and cleaved by TEV protease”, the “cleavage by TEV protease (SDS electrophoresis, 24 kDa to 20 kDa shift)” value [2] was “the other residues are substitutable with Ala” and the “cleavage by TEV protease (SDS electrophoresis, 24 kDa to 20 kDa shift)” value [3] was “substitution of Ala for Glu at residue 2 gives no significant change in cleavage”. For the same protein, the “cleavage by TEV protease (SDS electrophoresis, 24 kDa to 20 kDa shift)” value [4] was “the other residues are substitutable with Ala”, the “cleavage by TEV protease (SDS electrophoresis, 24 kDa to 20 kDa shift)” value [5] was “the other residues are substitutable with Ala” and the “cleavage by TEV protease (SDS electrophoresis, 24 kDa to 20 kDa shift)” value [6] was “the other residues are substitutable with Ala”. For the same protein, the “cleavage by TEV protease (SDS electrophoresis, 24 kDa to 20 kDa shift)” value [7] was “the other residues are substitutable with Ala”, the “cleavage by TEV protease (SDS electrophoresis, 24 kDa to 20 kDa shift)” value [8] was “the 4th, 5th and 7th amino acids (namely, Leu, Tyr and Gln) are essential for the substrate of TEV protease” and the “cleavage by TEV protease (SDS electrophoresis, 24 kDa to 20 kDa shift)” value [9] was “the other residues are substitutable with Ala”. For the same protein, the “cleavage by TEV protease (SDS electrophoresis, 24 kDa to 20 kDa shift)” value [10] was “the other residues are substitutable with Ala”, the “cleavage by TEV protease (SDS electrophoresis, 24 kDa to 20 kDa shift)” value [11] was “the 4th, 5th and 7th amino acids (namely, Leu, Tyr and Gln) are essential for the substrate of TEV protease” and the “cleavage by TEV protease (SDS electrophoresis, 24 kDa to 20 kDa shift)” value [12] was “the other residues are substitutable with Ala”. The “cleavage by TEV protease (SDS electrophoresis, 24 kDa to 20 kDa shift)” value [13] was “the 4th, 5th and 7th amino acids (namely, Leu, Tyr and Gln) are essential for the substrate of TEV protease”, the “cleavage by TEV protease” value [14] was “the above-mentioned W tag fusion proteins, like single tag fusion proteins, can be used ... for cleavage by TEV protease” and the “cleavage by TEV protease” value [15] was “the above-mentioned W tag fusion proteins, like single tag fusion proteins, can be used ... for cleavage by TEV protease”.
